Reference: patent publication US20160151410A1, “CLEARANCE OF BIOACTIVE LIPIDS FROM MEMBRANE STRUCTURES BY CYCLODEXTRINS” (The Trustees of Columbia University in the City of New York, priority 2013, published 2016)

Legend:
Format in all cases: biochemical
[1] = Phospholipase A activity assay; details: amount of enzyme used for LDL digestion
Procedure: (§1) Triglyceride hydrolase activity of CEase and LIPC was determined with DMPTB as substrate according to Choi et al. (Choi et al., 2003) Phospholipase A activity of CEase and LIPC was assayed similarly as triglyceride hydrolase activity but with 1.5 mM of 1,2-bis(heptanoylthio)glycerophosphocholine as substrate and assay buffer containing 10 mM of CaCl2 instead of 1 mM of EDTA.

[2] = tested on: classical pathway of complement system; assay: Complement activation (C3 fixation) by LIPC- or CEase-digested immobilized LDL with human serum; details: 0-50 μg/ml LIPC; 0-2 hours
Procedure: 96-well MaxiSorp plates were coated with fresh human LDL (A, D, E), VLDL (B), or NaOH-hydrolyzed LDL (C). After blocking with BSA, the plates, except (C), were digested with LIPC. To test complement activation, the plates were incubated with diluted native human serum (N), C1q-depleted human serum (Cd), factor B-depleted human serum (Bd), or human serum containing Mg-EGTA (ME). C3 fixation on the plate was detected with a monoclonal anti-C3d antibody followed by HRP-conjugated secondary antibody. Specific conditions for LIPC digestion and HRP-catalyzed color development of each experiment were outlined as following: LIPC was used at 10 μg/ml for (A, B, E), 0-50 μg/ml for (D), and no LIPC for (C). LIPC degradation was 1 hour for (D), 2 hours for (A, B), and 0-2 hours for (E). Color development was 15 minutes for (A, B, C, E) and 10 minutes for (D). For NaOH hydrolysis of LDL, 1.35 mg/ml of LDL was incubated in 0.15M NaOH solution at 25° C. for up to 60 minutes. Aliquots were taken out and neutralized with 0.15M HCl at 1, 10, 20, 60 minutes.
LIPC and CEase, both having 8 μUnits of phospholipase A1 activity but having 3 μUnits and 8125 μUnits of triglyceride hydrolase activity respectively, were used for 2 hours digestion of immobilized LDL. Complement activation with diluted native human serum is then determined as in FIG. 1. The HRP-catalyzed color development was 15 minutes.
Human LDL coating and 1 hour (C) or 2 hours (A, B) LIPC digestion was performed as described in FIG. 1. (A) For complement activation, 0-50 μM of phosphocholine was added into diluted native human serum. […]
After thorough washing of the plate, C3 fixation and final membrane attack complex formation on the plate were determined with anti-human C3d antibody and anti-human C5b-9 antibody, in combination with HRP-conjugated secondary antibody, respectively. […] The final peroxidase activity was monitored at 450 nm with 3,3′,5,5′-tetramethyl-benzidine and hydrogen peroxide as substrates after 10 or 15 minutes reaction at room temperature.

[3] = Triglyceride hydrolase activity assay; details: amount of enzyme used for LDL digestion
Procedure: as §1

PLA1 activity [1]: 8 μUnits
B1: LIPC: recombinant human LIPC (hepatic lipase) (protein, UniProt P11150 23-499, looked up)
Hepatic triacylglycerol lipase: LGQSLKPEPFGRRAQAVETNKTLHEMKTRFLLFGETNQGCQIRINHPDTLQECGFNSSLPLVMIIHGWSVDGVLENWIWQMVAALKSQPAQPVNVGLVDWITLAHDHYTIAVRNTRLVGKEVAALLRWLEESVQLSRSHVHLIGYSLGAHVSGFAGSSIGGTHKIGRITGLDAAGPLFEGSAPSNRLSPDDANFVDAIHTFTREHMGLSVGIKQPIGHYDFYPNGGSFQPGCHFLELYRHIAQHGFNAITQTIKCSHERSVHLFIDSLLHAGTQSMAYPCGDMNSFSQGLCLSCKKGRCNTLGYHVRQEPRSKSKRLFLVTRAQSPFKVYHYQFKIQFINQTETPIQTTFTMSLLGTKEKMQKIPITLGKGIASNKTYSFLITLDVDIGELIMIKFKWENSAVWANVWDTVQTIIPWSTGPRHSGLVLKTIRVKAGETQQRMTFCSENTDDLLLRPTQEKIFVKCEIKSKTSKRKIR
complement activation, dependence on LIPC degradation [2]: both dose and time-dependent
TGhydrolase activity [3]: 3 μUnits
